{"source": "paper PMC8624154", "target": "recombinant extracellular domain of rabies virus glycoprotein (RABVG, CVS strain) with T4 fibritin t (rabies virus (CVS strain))", "test": "SEC; rRABVG on Superdex 200 10/300 GL after HisTrap; single peak", "data": [{"substance": "recombinant extracellular domain of rabies virus glycoprotein (RABVG, CVS strain) with T4 fibritin t (domain or fragment)", "values": [{"measurement": "stoichiometry N", "value": 3}]}]}
